Data on four molecules can be found in patent US20260000740A1, “USE OF A L-ASPARAGINASE IN COMBINATION WITH A FERROPTOSIS INDUCER FOR THE TREATMENT OF EXTRANODAL NATURAL KILLER/T-CELL LYMPHOMA” (Institut National de la Santé et de la Recherche Médicale, priority 2022, published 2026).

The test system of one assay is KHYG-1 cells. As to the kind of experiment: Cell viability measurement by flow cytometry (Annexin V/PI). The class given is cell-based, human. The settings on record: for Effect of Gln addition on cell death: Gln addition combined to treatment alone; for Asparaginase sensitivity: KHYG1 cell line. How it is done:
KHYG-1 cells were seeded into flat wells of a 96-wells plate (Falcon) at a final concentration of 0.1 10^6 cells/well. APR-246 was dispensed at a final concentration of 20 uM and Asparaginases were dispensed at a final concentration range from 0.1 to 1 UI/mL. Plates were incubated at 37° C. and 5% CO2 for 72 hours in a humidity chamber. Cell viability was determined by flow cytometry using Annexin V (APC Annexin V, BD Biosciences, ref: 550474, 1:100 dilution)/Propidium Iodide (PI) (Propidium Iodide, Invitrogen, ref: BMS500FI-100, 1:20 dilution) staining. After 20 min incubation at 4° C. away from light, flow cytometry was performed using BD Fortessa cytometer (with HTS device for plate reading).
Flow cytometry data were analysed using FlowJo software and GraphPad-Prism 9. R software and Rstudio interface (version 1.4.1106) were used for synergy score calculation. Calculations were based on the Loewe model.
(In general: In flow cytometry, cells or beads pass a laser one at a time.)

Another assay relates to GSH. As to the kind of experiment: Quantification of GSH levels and GSH/GSSG ratio in tumor cells (metabolomics, specific quantification). Format: cell-based, human. The settings on record: for GSH / GSH/GSSG ratio: metabolomic analysis in tumor cells after one day treatment, single agent. The source says: (§1) Then, we wanted to uncover the metabolic changes induced by ASNase resistance.

Another assay deals with lipid peroxidation. As to the kind of experiment: Lipid peroxidation in KHYG1 cell line. The class given is cell-based, human. The settings on record: added to RSL3 combined with Erwinase; FIG. 2B.
A further assay relates to MEC-04 cell line. As to the kind of experiment: Asparaginase sensitivity of cell lines. The class given is cell-based, human.
Another assay deals with YT1 cell line. As to the kind of experiment: Asparaginase sensitivity of cell lines. The class given is cell-based, human.
Assay [1] deals with NALM6 human acute lymphoblastic leukemia cell line. As to the kind of experiment: Asparaginase sensitivity of cell lines. The class given is cell-based.
For the next assay, the system named is mitochondrial ROS. As to the kind of experiment: Quantification of mitochondrial ROS levels in tumor cells. As to conditions: Erwinase compared to Kidrolase; data not shown. The class given is cell-based, human.
Text: as §1

For a further assay, the system named is extracellular Gln. As to the kind of experiment: Extracellular glutamine levels in supernatant of cultured cells. As to conditions: cells cultured with each drug; compared to Kidrolase; data not shown. Format: cell-based, human. The text has this:
Glutamine (Gln) intake from extracellular compartment is converted in Glutamate (Glu) by glutaminase (GLS) and participates to cancer cells protection from oxidative stress through solute carrier family 7-member 11 (SLC7A11) expression. SLC7A11 encodes the cystine/Glu antiporter xCT which imports cysteine into the cell in exchange for Glu […].

Take `COCC1(CO)C(=O)C2CCN1CC2` (stereo not shown) [APR-246, 2-(hydroxymethyl)-2-(methoxymethyl)-1-azabicyclo[2.2.2]octan-3-one, reference compound]: in the assay on KHYG-1 cells (data not shown), the “Effect of Gln addition on cell death” value is reported as “no effect”.
With `CCOC(=O)c1ccc(NC2CCCCC2)c(N)c1` [ferrostatin-1, reference compound], in the assay with KHYG-1 cells (RSL3+Erwinase-treated cells, data not shown), the “Effect of co-treatment with ferrostatin-1 on the decrease in cell viability” value is recorded as “abrogated”. Further, the “Effect of ferrostatin-1 addition on GSH decrease” value with GSH (added to RSL3 combined with Erwinase, FIG. 2B) is reported as “reversed”. In the assay on lipid peroxidation, the “Effect of ferrostatin-1 addition on lipid peroxidation accumulation” value is recorded as “reversed”.

B1: Kidrolase: L-Asparaginase from E. Coli (Kidrolase®) (protein, UniProt P00805 23-348, looked up)
L-asparaginase 2: LPNITILATGGTIAGGGDSATKSNYTVGKVGVENLVNAVPQLKDIANVKGEQVVNIGSQDMNDNVWLTLAKKINTDCDKTDGFVITHGTDTMEETAYFLDLTVKCDKPVVMVGAMRPSTSMSADGPFNLYNAVVTAADKASANRGVLVVMNDTVLDGRDVTKTNTTDVATFKSVNYGPLGYIHNGKIDYQRTPARKHTSDTPFDVSKLNELPKVGIVYNYANASDLPAKALVDAGYDGIVSAGVGNGNLYKSVFDTLATAAKTGTAVVRSSRVPTGATTQDAEVDDAKYGFVASGTLNPQKARVLLQLALTQTKDPQQIQQIFNQY
Turning to B1, the Asparaginase sensitivity result in the assay with MEC-04 cell line is reported as “high sensitivity”; with YT1 cell line, “high sensitivity”; in assay [1], “resistant”; in the assay on KHYG-1 cells it was “resistant”. Also, in the assay with KHYG-1 cells (data not shown), the “Effect of Gln addition on cell death” value is “no effect”. In the assay with GSH (data not shown), the GSH entry is “decrease”. Moreover, the GSH/GSSG ratio entry in the assay with GSH (data not shown) is listed as “decrease”.

B2: Erwinase: L-ASP protein from Erwinia chrysanthemi, named crisantaspase, marketed as Erwinase®; SEQ ID NO:1 (protein, listed as Erwinia chrysanthemi)
chain: ADKLPNIVILATGGTIAGSAATGTQTTGYKAGALGVDTLINAVPEVKKLANVKGEQFSNMASENMTGDVVLKLSQRVNELLARDDVDGVVITHGTDTVEESAYFLHLTVKSDKPVVFVAAMRPATAISADGPMNLLEAVRVAGDKQSRGRGVMVVLNDRIGSARYITKTNASTLDTFKANEEGYLGVIIGNRIYYQNRIDKLHTTRSVFDVRGLTSLPKVDILYGYQDDPEYLYDAAIQHGVKGIVYAGMGAGSVSVRGIAGMRKAMEKGVVVIRSTRTGNGIVPPDEELPGLVSDSLNPAHARILLMLALTRTSDPKVIQEYFHTY
As for B2, the Asparaginase sensitivity result is “high sensitivity” in the assay with MEC-04 cell line, “high sensitivity” with YT1 cell line, “resistant” in assay [1] and “resistant” with KHYG-1 cells. Moreover, the “Effect of Gln addition on cell death” value in the assay on KHYG-1 cells (data not shown) is “partially prevents cell death”. In the assay on GSH (Erwinase compared to Kidrolase, data not shown), the GSH levels result was “GSH decrease”. The GSH entry in the assay on GSH (data not shown) is recorded as “more pronounced”. Moreover, the GSH/GSSG ratio result in the assay on GSH (data not shown) is recorded as “more pronounced”. In the assay on GSH (upon Erwinase treatment, data not shown), the “Effect of extracellular Gln addition on intracellular GSH levels” value is “significantly rescues”. Moreover, in the assay on mitochondrial ROS, the ROS levels entry is given as “higher ROS levels”. Besides, the “Gln extracellular levels in the supernatant” value in the assay on extracellular Gln is “deeper extracellular Gln depletion”.
